Measured values taken from patent US20260049115A1.

Target: CCR5 on ThP1 human monocytes (human) (UniProt P51681)
Sequence (P51681 whole entry): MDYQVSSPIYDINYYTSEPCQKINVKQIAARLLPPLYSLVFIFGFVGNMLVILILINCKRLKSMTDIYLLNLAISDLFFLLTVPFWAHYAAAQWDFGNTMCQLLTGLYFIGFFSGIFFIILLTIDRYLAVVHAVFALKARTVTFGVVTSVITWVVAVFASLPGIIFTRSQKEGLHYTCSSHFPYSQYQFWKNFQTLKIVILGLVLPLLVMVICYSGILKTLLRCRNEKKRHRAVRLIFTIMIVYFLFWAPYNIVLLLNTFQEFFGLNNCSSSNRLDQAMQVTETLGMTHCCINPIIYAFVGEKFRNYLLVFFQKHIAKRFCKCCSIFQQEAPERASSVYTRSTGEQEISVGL

EC50, calcium flux (RFU) in ThP1 monocytes [panel D]: 6.3 nM
Substance: native form murine CCL4 (from UniProt P14097 24-92) (ligand)
